This note sets out measurements from patent US20250163167A1 (SYNTHEKINE, published 2025).

Sequences and labels used below:
T1: human IL-10 receptor (hIL-10R alpha and beta chains) on HEK-Blue IL-10 reporter cells (human, UniProt Q13651 22-578; Q08334 20-325)
T1 sequence 1: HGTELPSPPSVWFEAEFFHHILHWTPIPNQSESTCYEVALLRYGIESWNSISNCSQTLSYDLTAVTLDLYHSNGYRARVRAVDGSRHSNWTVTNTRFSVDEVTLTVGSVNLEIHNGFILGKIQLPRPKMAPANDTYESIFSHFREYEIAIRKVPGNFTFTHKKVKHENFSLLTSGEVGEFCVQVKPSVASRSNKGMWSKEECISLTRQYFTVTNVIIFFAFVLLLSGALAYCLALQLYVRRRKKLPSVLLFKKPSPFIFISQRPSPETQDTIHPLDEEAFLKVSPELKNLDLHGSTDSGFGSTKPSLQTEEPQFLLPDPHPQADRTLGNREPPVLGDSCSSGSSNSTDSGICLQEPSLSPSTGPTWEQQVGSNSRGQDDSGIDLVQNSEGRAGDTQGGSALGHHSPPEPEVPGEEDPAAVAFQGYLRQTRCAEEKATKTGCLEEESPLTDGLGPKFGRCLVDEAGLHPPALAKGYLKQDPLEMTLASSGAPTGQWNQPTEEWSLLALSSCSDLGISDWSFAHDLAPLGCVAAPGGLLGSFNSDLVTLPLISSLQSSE
T1 sequence 2: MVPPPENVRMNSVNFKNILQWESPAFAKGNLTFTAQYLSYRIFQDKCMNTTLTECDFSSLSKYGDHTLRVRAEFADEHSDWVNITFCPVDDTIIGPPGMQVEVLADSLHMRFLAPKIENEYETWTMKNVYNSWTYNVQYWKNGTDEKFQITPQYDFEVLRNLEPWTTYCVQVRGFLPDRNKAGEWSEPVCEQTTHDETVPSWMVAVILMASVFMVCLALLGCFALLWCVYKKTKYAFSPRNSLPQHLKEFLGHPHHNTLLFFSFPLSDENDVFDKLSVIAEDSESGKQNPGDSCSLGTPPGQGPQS

B1: IL10R binding molecule of SEQ ID NO: 353 (bispecific antibody)
chain: QVQLQESGGGSVQTGGSLRLSCAASGYTYLRGCMGWFRQAPGKEREGVAVMDVVGDRRSYIDSVKGRFTISRDNAANSVYLQMDNLKPEDTAMYYCTAGPNCVGWRSGLDYWGQGTQVTVSSGGGSQVQLQESGGGSVQAGGSLRLSCAASGYSNCSYDMTWYRQAPGKEREFVSAIHSDGSTRYADSVKGRFFISQDNAKNTVYLQMNSLKPEDTAMYYCKTDPLHCRAHGGSWYSVRANYWGQGTQVTVSSASHHHHHH
B2: IL10R binding molecule of SEQ ID NO: 350 (bispecific antibody)
chain: QVQLQESGGGSVQTGGSLRLSCAASGYTYLRGCMGWFRQAPGKEREGVAVMDVVGDRRSYIDSVKGRFTISRDNAANSVYLQMDNLKPEDTAMYYCTAGPNCVGWRSGLDYWGQGTQVTVSSGGGSQVQLQESGGGSVQAGGSLRLSCAVSGYAYSTYCMGWFRQAPGKEREGVAAIDSGGSTSYADSVKGRFTISKDNAKNTLYLRMNSLKPEDTAMYYCAAVPPPPDGGSCLFLGPEIKVSKADFRYWGQGTQVTVSSASHHHHHH
B3: IL10R binding molecule of SEQ ID NO: 340 (bispecific antibody)
chain: QVQLQESGGGSVQAGGSLRLSCAASGYSYSSYCMGWFRQAPGKEREGVATIDSDGMTRYADSVKGRFTISKDNAKNTLYLQMNSLKPEDTAMYYCAAPLYDCDSGAVGRNPPYWGQGTQVTVSSGGGSQVQLQESGGGSVQAGGSLRLSCAASRYLYSIDYMAWFRQSPGKEREPVAVIYTASGATFYPDSVKGRFTISQDNAKMTVYLQMNSLKSEDTAMYYCAAVRKTDSYLFDAQSFTYWGQGTQVTVSSASHHHHHH
B4: IL10R binding molecule of SEQ ID NO: 351 (bispecific antibody)
chain: QVQLQESGGGSVQTGGSLRLSCAASGYTYLRGCMGWFRQAPGKEREGVAVMDVVGDRRSYIDSVKGRFTISRDNAANSVYLQMDNLKPEDTAMYYCTAGPNCVGWRSGLDYWGQGTQVTVSSGGGSQVQLQESGGGSVQAGGSLRLSCTVSGYTYSSNCMGWFRQAPGKEREGVATIYTGGGNTYYADSVKGRFTISQDNAKNTVYLQMNNLKPEDTAMYYCAAEPLSRVYGGSCPTPTFDYWGQGTQVTVSSASHHHHHH
B5: IL10R binding molecule of SEQ ID NO: 342 (bispecific antibody)
chain: QVQLQESGGGSVQAGGSLRLSCAASGYSYSSYCMGWFRQAPGKEREGVATIDSDGMTRYADSVKGRFTISKDNAKNTLYLQMNSLKPEDTAMYYCAAPLYDCDSGAVGRNPPYWGQGTQVTVSSGGGSQVQLQESGGGSVQAGGSLRLSCAASGYTYSMYCMGWFRQAPGKEREGVAQINSDGSTSYADSVKGRFTISKDNAKNTLYLQMNSLKPEDTAMYYCAADSRVYGGSWYERLCGPYTYEYNYWGQGTQVTVSSASHHHHHH
B6: IL10R binding molecule of SEQ ID NO: 352 (bispecific antibody)
chain: QVQLQESGGGSVQTGGSLRLSCAASGYTYLRGCMGWFRQAPGKEREGVAVMDVVGDRRSYIDSVKGRFTISRDNAANSVYLQMDNLKPEDTAMYYCTAGPNCVGWRSGLDYWGQGTQVTVSSGGGSQVQLQESGGGSVQAGGSLRLSCGASGYTYSSYCMGWFRQVPGKEREGVAVIDSDGSTSYADSVKGRFTISKDNGKNTLYLQMNSLKPEDTAMYYCAADLGHYRPPCGVLYLGMDYWGKGTQVTVSSASHHHHHH
B7: IL10R binding molecule of SEQ ID NO: 346 (bispecific antibody)
chain: QVQLQESGGGSVQAGGSLRLSCAASGYSYSSYCMGWFRQAPGKEREGVATIDSDGMTRYADSVKGRFTISKDNAKNTLYLQMNSLKPEDTAMYYCAAPLYDCDSGAVGRNPPYWGQGTQVTVSSGGGSQVQLQESGGGSVQAGGSLRLSCAASGYSNCSYDMTWYRQAPGKEREFVSAIHSDGSTRYADSVKGRFFISQDNAKNTVYLQMNSLKPEDTAMYYCKTDPLHCRAHGGSWYSVRANYWGQGTQVTVSSASHHHHHH
B8: IL10R binding molecule of SEQ ID NO: 344 (bispecific antibody)
chain: QVQLQESGGGSVQAGGSLRLSCAASGYSYSSYCMGWFRQAPGKEREGVATIDSDGMTRYADSVKGRFTISKDNAKNTLYLQMNSLKPEDTAMYYCAAPLYDCDSGAVGRNPPYWGQGTQVTVSSGGGSQVQLQESGGGSVQAGGSLRLSCTVSGYTYSSNCMGWFRQAPGKEREGVATIYTGGGNTYYADSVKGRFTISQDNAKNTVYLQMNNLKPEDTAMYYCAAEPLSRVYGGSCPTPTFDYWGQGTQVTVSSASHHHHHH
B9: IL10R binding molecule of SEQ ID NO: 348 (bispecific antibody)
chain: QVQLQESGGGSVQTGGSLRLSCAASGYTYLRGCMGWFRQAPGKEREGVAVMDVVGDRRSYIDSVKGRFTISRDNAANSVYLQMDNLKPEDTAMYYCTAGPNCVGWRSGLDYWGQGTQVTVSSGGGSQVQLQESGGGSVQAGGSLRLSCAASRFTYSSYCMGWFRQAPGKEREGVASIDSDGSTSYTDSVKGRFTISKDNAKNTLYLQMNSLKPEDTAMYYCALDLMSTVVPGFCGFLLSAGMDYWGKGTQVTVSSASHHHHHH
B10: IL10R binding molecule of SEQ ID NO: 345 (bispecific antibody)
chain: QVQLQESGGGSVQAGGSLRLSCAASGYSYSSYCMGWFRQAPGKEREGVATIDSDGMTRYADSVKGRFTISKDNAKNTLYLQMNSLKPEDTAMYYCAAPLYDCDSGAVGRNPPYWGQGTQVTVSSGGGSQVQLQESGGGSVQAGGSLRLSCGASGYTYSSYCMGWFRQVPGKEREGVAVIDSDGSTSYADSVKGRFTISKDNGKNTLYLQMNSLKPEDTAMYYCAADLGHYRPPCGVLYLGMDYWGKGTQVTVSSASHHHHHH
B11: IL10R binding molecule of SEQ ID NO: 264 (bispecific antibody)
chain: QVQLQESGGGSVQAGGSLRLSCAASRFTYSSYCMGWFRQAPGKEREGVASIDSDGSTSYTDSVKGRFTISKDNAKNTLYLQMNSLKPEDTAMYYCALDLMSTVVPGFCGFLLSAGMDYWGKGTQVTVSSGGGSQVQLQESGGGSVQAGGSLRLSCAASGYTYSSYCMGWFRQAPGKEREGVAHIDSDGSTSYADSVKGRFTISKDNAKNTLYLQMNSLKPEDTAMYYCAADPIPGPGYCDGGPNKYWGQGTQVTVSSASHHHHHH
B12: IL10R binding molecule of SEQ ID NO: 347 (bispecific antibody)
chain: QVQLQESGGGSVQTGGSLRLSCAASGYTYLRGCMGWFRQAPGKEREGVAVMDVVGDRRSYIDSVKGRFTISRDNAANSVYLQMDNLKPEDTAMYYCTAGPNCVGWRSGLDYWGQGTQVTVSSGGGSQVQLQESGGGSVQAGGSLRLSCAASRYLYSIDYMAWFRQSPGKEREPVAVIYTASGATFYPDSVKGRFTISQDNAKMTVYLQMNSLKSEDTAMYYCAAVRKTDSYLFDAQSFTYWGQGTQVTVSSASHHHHHH
B13: IL10R binding molecule of SEQ ID NO: 341 (bispecific antibody)
chain: QVQLQESGGGSVQAGGSLRLSCAASGYSYSSYCMGWFRQAPGKEREGVATIDSDGMTRYADSVKGRFTISKDNAKNTLYLQMNSLKPEDTAMYYCAAPLYDCDSGAVGRNPPYWGQGTQVTVSSGGGSQVQLQESGGGSVQAGGSLRLSCAASRFTYSSYCMGWFRQAPGKEREGVASIDSDGSTSYTDSVKGRFTISKDNAKNTLYLQMNSLKPEDTAMYYCALDLMSTVVPGFCGFLLSAGMDYWGKGTQVTVSSASHHHHHH
B14: IL10R binding molecule of SEQ ID NO: 349 (bispecific antibody)
chain: QVQLQESGGGSVQTGGSLRLSCAASGYTYLRGCMGWFRQAPGKEREGVAVMDVVGDRRSYIDSVKGRFTISRDNAANSVYLQMDNLKPEDTAMYYCTAGPNCVGWRSGLDYWGQGTQVTVSSGGGSQVQLQESGGGSVQAGGSLRLSCAASGYTYSMYCMGWFRQAPGKEREGVAQINSDGSTSYADSVKGRFTISKDNAKNTLYLQMNSLKPEDTAMYYCAADSRVYGGSWYERLCGPYTYEYNYWGQGTQVTVSSASHHHHHH
B15: IL10R binding molecule of SEQ ID NO: 343 (bispecific antibody)
chain: QVQLQESGGGSVQAGGSLRLSCAASGYSYSSYCMGWFRQAPGKEREGVATIDSDGMTRYADSVKGRFTISKDNAKNTLYLQMNSLKPEDTAMYYCAAPLYDCDSGAVGRNPPYWGQGTQVTVSSGGGSQVQLQESGGGSVQAGGSLRLSCAVSGYAYSTYCMGWFRQAPGKEREGVAAIDSGGSTSYADSVKGRFTISKDNAKNTLYLRMNSLKPEDTAMYYCAAVPPPPDGGSCLFLGPEIKVSKADFRYWGQGTQVTVSSASHHHHHH

For this assay, the target named is T1, human IL-10 receptor (hIL-10R alpha and …). Kind of assay: cell-based or functional assay.
Consider B1, for which the “Abs 630 (25 nM)” value was 0.56 Abs 630 and the “Abs 630 (100 nM)” value was found to be 0.61 Abs 630.

For B2, the “Abs 630 (25 nM)” value was found to be 0.43 Abs 630 and the “Abs 630 (100 nM)” value stood at 0.35 Abs 630.

Regarding B3, the “Abs 630 (25 nM)” value came out at 0.46 Abs 630 and the “Abs 630 (100 nM)” value turned out to be 0.51 Abs 630.

With B4, the “Abs 630 (25 nM)” value came to 0.43 Abs 630 and the “Abs 630 (100 nM)” value is 0.34 Abs 630.

Consider B5, for which the “Abs 630 (25 nM)” value came to 0.45 Abs 630 and the “Abs 630 (100 nM)” value stood at 0.36 Abs 630.

Consider B6, for which the “Abs 630 (25 nM)” value turned out to be 0.54 Abs 630 and the “Abs 630 (100 nM)” value is 0.65 Abs 630.

Consider B7, for which the “Abs 630 (25 nM)” value was 0.43 Abs 630 and the “Abs 630 (100 nM)” value came to 0.35 Abs 630.

Regarding B8, the “Abs 630 (25 nM)” value amounted to 0.5 Abs 630 and the “Abs 630 (100 nM)” value was found to be 0.43 Abs 630.

For the molecule B9, the “Abs 630 (25 nM)” value was 0.46 Abs 630 and the “Abs 630 (100 nM)” value is 0.36 Abs 630.

B10: the “Abs 630 (25 nM)” value is 0.52 Abs 630 and the “Abs 630 (100 nM)” value worked out at 0.44 Abs 630.

With B11, the “Abs 630 (25 nM)” value came to 1.52 Abs 630 and the “Abs 630 (100 nM)” value was 0.67 Abs 630.

Regarding B12, the “Abs 630 (25 nM)” value amounted to 0.45 Abs 630 and the “Abs 630 (100 nM)” value worked out at 0.35 Abs 630.

As to B13, the “Abs 630 (25 nM)” value was 0.6 Abs 630 and the “Abs 630 (100 nM)” value is 0.48 Abs 630.

On to B14, for which the “Abs 630 (25 nM)” value worked out at 0.46 Abs 630 and the “Abs 630 (100 nM)” value is 0.38 Abs 630.

Take B15: the “Abs 630 (25 nM)” value worked out at 0.46 Abs 630 and the “Abs 630 (100 nM)” value was 0.37 Abs 630.
